First the molecules themselves.
T1: CDH6 on OVCAR3 cells (human, UniProt P55285 54-790)
T1 construct: whole, on cells; also called CDH6 positive cells OVCAR3; CDH6 high-expression cell strain
T1 sequence (looked up): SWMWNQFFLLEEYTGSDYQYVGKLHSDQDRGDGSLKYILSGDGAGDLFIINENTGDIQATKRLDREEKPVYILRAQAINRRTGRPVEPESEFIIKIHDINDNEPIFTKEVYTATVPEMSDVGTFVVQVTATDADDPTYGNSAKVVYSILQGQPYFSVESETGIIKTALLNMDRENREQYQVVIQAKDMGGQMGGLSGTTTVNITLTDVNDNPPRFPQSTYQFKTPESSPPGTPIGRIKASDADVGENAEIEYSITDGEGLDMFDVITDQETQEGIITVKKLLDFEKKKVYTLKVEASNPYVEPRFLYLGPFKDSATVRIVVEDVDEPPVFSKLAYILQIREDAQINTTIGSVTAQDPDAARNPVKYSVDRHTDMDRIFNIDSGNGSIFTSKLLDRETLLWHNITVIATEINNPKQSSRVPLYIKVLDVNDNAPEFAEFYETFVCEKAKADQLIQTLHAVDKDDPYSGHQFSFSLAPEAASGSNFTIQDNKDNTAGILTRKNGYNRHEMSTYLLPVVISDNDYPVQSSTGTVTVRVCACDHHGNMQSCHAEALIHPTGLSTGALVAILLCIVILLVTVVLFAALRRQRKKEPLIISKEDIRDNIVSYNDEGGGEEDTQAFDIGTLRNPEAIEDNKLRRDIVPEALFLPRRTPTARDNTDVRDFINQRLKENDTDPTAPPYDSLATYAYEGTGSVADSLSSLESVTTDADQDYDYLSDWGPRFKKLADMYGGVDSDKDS

B1: ADC-L1-19-6 (antibody, human IgG1, kappa, V domains shown)
VH: EVQLVQSGAEVKKPGASVKVSCKASGYTFTDYYMAWVRQAPGQGLEWMGYIFPNSGGTDYSQKFKGRVTLTVDKSTSTVYMELSSLRSEDTAVYYCARELGADYGDYYAMDHWGQGTTVTVSS
VL: DIQMTQSPSSLSASVGDRVTITCRASENIDSYLAWYQQKPGKSPKLLVYSATLLADGVPSRFSGSGSGTDYTLTISSLQPEDFATYYCQHYYRTPPTFGQGTKLEIKR
modifications: drug-linker L1-19 on cysteine thiols after TCEP reduction; positions not given; DAR 7.4 for the whole conjugate
notes: Antibody-drug conjugate
B2: ADC-L1-19-P1-6 (antibody, human IgG1, kappa, V domains shown)
VH: EVQLVQSGAEVKKPGASVKVSCKASGYTFTDYYMAWVRQAPGQGLEWMGYIFPNSGGTDYSQKFKGRVTLTVDKSTSTVYMELSSLRSEDTAVYYCARELGADYGDYYAMDHWGQGTTVTVSS
VL: DIQMTQSPSSLSASVGDRVTITCRASENIDSYLAWYQQKPGKSPKLLVYSATLLADGVPSRFSGSGSGTDYTLTISSLQPEDFATYYCQHYYRTPPTFGQGTKLEIKR
modifications: drug-linker L1-19-P1 on cysteine thiols after TCEP reduction; positions not given; DAR 8.0 for the whole conjugate
notes: Antibody-drug conjugate
B3: CDH6-Ab-3 (antibody, human IgG1, kappa, V domains shown)
VH: EVQLVQSGAEVKKPGASVKVSCKASGYTFTDYYMAWVRQAPGQGLEWMGYIFPNSGGTDYSQKFKGRVTLTVDKSTSTVYMELSSLRSEDTAVYYCARELGADYGDYYAMDHWGQGTTVTVSS
VL: DIQMTQSPSSLSASVGDRVTITCRASENIDSYLAWYQQKPGKSPKLLVYSATLLADGVPSRFSGSGSGTDYTLTISSLQPEDFATYYCQHYYRTPPTFGQGTKLEIKR
notes: also called humanized anti-human CDH6 antibody CDH6-Ab-3
B4: ADC-L1-14-P1-3 (antibody, human IgG1, kappa, V domains shown)
VH: EVQLVQSGAEVKKPGASVKVSCKASGYTFTRNFMHWVRQAPGQGLEWMGWIYPGDGETEYAQKFQGRVTITADTSTSTAYMELSSLRSEDTAVYYCARGVYGGFAGGYFDFWGQGTLVTVSS
VL: DIQMTQSPSSLSASVGDRVTITCKASQNIYKNLAWYQQKPGKAPKLLIYDANTLQTGVPSRFSGSGSGSDFTLTISSLQPEDFATYFCQQYYSGWAFGQGTKVEIKR
modifications: drug-linker L1-14-P1 on cysteine thiols after TCEP reduction; positions not given; DAR 8.5 for the whole conjugate
notes: Antibody-drug conjugate
B5: ADC-L1-19-P1-3 (antibody, human IgG1, kappa, V domains shown)
VH: EVQLVQSGAEVKKPGASVKVSCKASGYTFTRNFMHWVRQAPGQGLEWMGWIYPGDGETEYAQKFQGRVTITADTSTSTAYMELSSLRSEDTAVYYCARGVYGGFAGGYFDFWGQGTLVTVSS
VL: DIQMTQSPSSLSASVGDRVTITCKASQNIYKNLAWYQQKPGKAPKLLIYDANTLQTGVPSRFSGSGSGSDFTLTISSLQPEDFATYFCQQYYSGWAFGQGTKVEIKR
modifications: drug-linker L1-19-P1 on cysteine thiols after TCEP reduction; positions not given; DAR 7.2 for the whole conjugate
notes: Antibody-drug conjugate
B6: ADC-L1-19-3 (antibody, human IgG1, kappa, V domains shown)
VH: EVQLVQSGAEVKKPGASVKVSCKASGYTFTRNFMHWVRQAPGQGLEWMGWIYPGDGETEYAQKFQGRVTITADTSTSTAYMELSSLRSEDTAVYYCARGVYGGFAGGYFDFWGQGTLVTVSS
VL: DIQMTQSPSSLSASVGDRVTITCKASQNIYKNLAWYQQKPGKAPKLLIYDANTLQTGVPSRFSGSGSGSDFTLTISSLQPEDFATYFCQQYYSGWAFGQGTKVEIKR
modifications: drug-linker L1-19 on cysteine thiols after TCEP reduction; positions not given; DAR 7.1 for the whole conjugate
notes: Antibody-drug conjugate
B7: CDH6-Ab (antibody, human IgG1, kappa, V domains shown)
VH: EVQLVQSGAEVKKPGASVKVSCKASGYTFTRNFMHWVRQAPGQGLEWMGWIYPGDGETEYAQKFQGRVTITADTSTSTAYMELSSLRSEDTAVYYCARGVYGGFAGGYFDFWGQGTLVTVSS
VL: DIQMTQSPSSLSASVGDRVTITCKASQNIYKNLAWYQQKPGKAPKLLIYDANTLQTGVPSRFSGSGSGSDFTLTISSLQPEDFATYFCQQYYSGWAFGQGTKVEIKR
notes: also called anti-human CDH6 monoclonal antibody CDH6-Ab
B8: ADC-L1-19-5 (antibody, human IgG1, kappa, V domains shown)
VH: EVQLVQSGAEVKKPGASVKVSCKASGYTFTDNYINWVRQAPGQRLEWMGWIYPGTGNSYYNEKFKGRVTITVDTSASTAYMELSSLRSEDTAVYLCASSYGDSFDYWGQGTTVTVSS
VL: DIVMTQSPDSLAVSLGERATINCRASQDIRNYLNWYQQKPGQTPKLLISYTSRLHSGVPDRFSGSGSGTDFTLTISSLQAEDVAVYYCQQYSQLPWTFGGGTKVEIKR
modifications: drug-linker L1-19 on cysteine thiols after TCEP reduction; positions not given; DAR 6.8 for the whole conjugate
notes: Antibody-drug conjugate
B9: CDH6-Ab-2 (antibody, human IgG1, kappa, V domains shown)
VH: EVQLVQSGAEVKKPGASVKVSCKASGYTFTDNYINWVRQAPGQRLEWMGWIYPGTGNSYYNEKFKGRVTITVDTSASTAYMELSSLRSEDTAVYLCASSYGDSFDYWGQGTTVTVSS
VL: DIVMTQSPDSLAVSLGERATINCRASQDIRNYLNWYQQKPGQTPKLLISYTSRLHSGVPDRFSGSGSGTDFTLTISSLQAEDVAVYYCQQYSQLPWTFGGGTKVEIKR
notes: also called humanized anti-human CDH6 antibody CDH6-Ab-2

For this test, the target named is T1, CDH6 on OVCAR3 cells. Put plainly: flow cytometry (FACS) on OVCAR3 cells, Alexa Fluor 647 anti-human Fc secondary antibody, MFI, four-parameter fit. As to the method: OVCAR3 cells were collected, counted, and plated in a 96-well plate (Corning, 3795) at 2×10⁵ cells/well. The serially diluted sample to be detected was added and incubated at 4° C. for 1 h. After the mixture was washed twice with ice PBS, Alexa Fluor-647 Goat anti-human Fc secondary antibody (JacksonImmuno, 109-605-098) was added, and the mixture was incubated at 4° C. for 1 h. After the mixture was washed twice with ice PBS, the cells were resuspended, and the mean fluorescence intensity (MFI) was analyzed using a flow cytometer (BD FACSCanto™ II). Data were analyzed by four-parameter curve fitting using Graphpad Prism software to give EC₅₀ values.
(Flow cytometry measures light scatter and fluorescence of single cells or particles in a stream.)
For B1, the midpoint of the response, the EC50, lay at 0.85 nM.

Molecule B2 gave an EC50 of 0.8 nM.

Molecule B3 gave an EC50 of 0.78 nM.

Take B4: it took 0.49 nM to reach a half-maximal effect (EC50).

B5 showed an EC50 of 0.36 nM.

Molecule B6 came in with an EC50 of 0.34 nM.

B7 returned an EC50 of 0.71 nM.

The molecule B8 gave an EC50 of 0.51 nM.

As to B9, the EC50 was 0.63 nM.

A word on the EC50: it is the concentration that produces a half-maximal response.

The record behind these values is US20250304717A1, “CAMPTOTHECIN DERIVATIVE AND LIGAND-DRUG CONJUGATE” (HAINAN SIMCERE ZAIMING PHARMACEUTICAL CO., LTD., priority 2022, published 2025).
